Where two headings read alike, the source gives them in different places.
How the values were obtained:
Test in all cases: fluorescence anisotropy
SAMHD1 T592A [1] = molecular target: T1, SAMHD1 T592A (UniProt Q9Y3Z3 1-626, T592A)
SAMHD1 WT [2] = molecular target: T2, SAMHD1 WT (UniProt Q9Y3Z3 1-626)
SAMHD1 T592A [3] = molecular target: T1, SAMHD1 T592A; remark: listed apart in the source
SAMHD1 WT [4] = molecular target: T2, SAMHD1 WT; remark: listed apart in the source
SAMHD1 WT [5] = molecular target: T2, SAMHD1 WT; remark: listed apart in the source

T2 sequence (Q9Y3Z3 whole entry): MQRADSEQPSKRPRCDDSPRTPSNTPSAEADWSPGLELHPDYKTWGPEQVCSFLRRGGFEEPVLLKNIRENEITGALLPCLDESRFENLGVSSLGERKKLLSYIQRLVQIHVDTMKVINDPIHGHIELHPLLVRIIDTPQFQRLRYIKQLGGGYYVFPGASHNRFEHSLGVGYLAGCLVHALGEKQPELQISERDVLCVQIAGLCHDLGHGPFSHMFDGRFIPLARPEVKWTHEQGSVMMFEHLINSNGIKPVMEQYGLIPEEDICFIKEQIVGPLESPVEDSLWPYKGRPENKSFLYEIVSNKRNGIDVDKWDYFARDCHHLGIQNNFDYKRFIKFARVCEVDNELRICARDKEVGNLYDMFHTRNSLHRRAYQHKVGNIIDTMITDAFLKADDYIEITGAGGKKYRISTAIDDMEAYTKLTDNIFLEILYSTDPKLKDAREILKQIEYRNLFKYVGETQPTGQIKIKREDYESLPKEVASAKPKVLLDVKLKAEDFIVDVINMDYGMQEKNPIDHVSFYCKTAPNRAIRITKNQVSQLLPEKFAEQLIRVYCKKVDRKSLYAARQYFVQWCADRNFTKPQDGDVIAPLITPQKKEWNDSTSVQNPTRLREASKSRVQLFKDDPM
T1 sequence (Q9Y3Z3 whole entry T592A): as the sequence (Q9Y3Z3 whole entry) above, with T592A counted along it

B1: Scrambled DNA 90-mer (ssDNA)
DNA: ACTAGCTCAAGCGGGGGACACCCAGGTGTCTCCAACAGTCCGTAGATCGGACGGAGAAGAGGGGACCCCGCTAATGAGCGTGAGCAGAGA
B1: no binding (SAMHD1 T592A [1]); no binding (SAMHD1 WT [2]).

B2: HIV-1 LTR 90-mer (ssDNA)
DNA: AGCAGTGGCGCCCGAACAGGGACTTGAAAGCGAAAGTAAAGCCAGAGGAGATCTCTCGACGCAGGACTCGGCTTGCTGAAGCGCGCACGG
For B2, the binding result (SAMHD1 T592A [3]) was “no binding”, the Kd (SAMHD1 WT [4]) was 93 ± 8 nM and the Kd (SAMHD1 WT [5]) was 242 ± 51 nM.

— article doi:10.1101/270843
